In US20250339531A1, “DUX4 POLYPEPTIDES AND NUCLEIC ACIDS FOR TREATING INFLAMMATORY AND AUTOIMMUNE CONDITIONS” (Fred Hutchinson Cancer Center, priority 2021, published 2025):

Test system: proteins that co-immunoprecipitated with DUX4-CTD constructs expressed in MB135 myoblasts
Assay: LC-MS of proteins co-immunoprecipitated with DUX4-CTD (Table 1) and western validation
Type: binding, human
Set-up: key to 4. mL1dL2 + Dox + IFNG / 4. + IFNG mix / 4. longCTD + Dox + IFNG / 3. + IFNg + Dox longCTD / 3. + Dox longCTD / 3. + IFNG longCTD: peptide-spectrum matches (PSMs) per protein
Settings: kind of count not given; for 4. mL1dL2 + Dox + IFNG: LC-MS value per protein co-immunoprecipitated with DUX4-CTD construct mL1dL2 in MB135 myoblasts; for 4. + IFNG mix: LC-MS value per protein co-immunoprecipitated from MB135 myoblasts, + IFNG mix sample (no Dox)
Outline: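 FLAG-tagged DUX4-CTD expressed in doxycycline-induced MB135 myoblasts, some also IFNG-treated; nuclear lysates in pH 7.4 NP-40 IP buffer were pre-cleared, then anti-FLAG immunoprecipitated 3 h at 4 °C. For LC-MS, FLAG-peptide elution, in-gel trypsin digest, Orbitrap analysis; proteins with ≥2 PSMs in both experiments categorised and ranked by total PSMs.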

Molecule | 4. mL1dL2 + Dox + IFNG | 4. + IFNG mix
PRSS2 (protein) IVGGYICEENSVPYQVSLNSGYHFCGGSLISEQWVVSAGHCYKSAINSKLSGRGCEYHRIQVRLGEHNIEVLEGNEQFINAAKIIRHPKYNSRTLDNDILLIKLSSPAVINSRVSAISLPTAPPAAGTESLISGWGNTLSSGADYPDELQCLDAPVLSQAECEASYPGKITNNMFCVGFLEGGKDSCQGDSGGPVVSNGELQGIVSWGYGCAQKNRPGVYTKVYNYVDWIKDTIAANS | 1 | –
HAT1 (protein) AGFGAMEKFLVEYKSAVEKKLAEYKCNTNTAIELKLVRFPEDLENDIRTFFPEYTHQLFGDDETAFGYKGLKILLYYIAGSLSTMFRVEYASKVDENFDCVEADDVEGKIRQIIPPGFCTNTNDFLSLLEKEVDFKPFGTLLHTYSVLSPTGGENFTFQIYKADMTCRGFREYHERLQTFLMWFIETASFIDVDDERWHYFLVFEKYNKDGATLFATVGYMTVYNYYVYPDKTRPRVSQMLILTPFQGQGHGAQLLETVHRYYTEFPTVLDITAEDPSKSYVKLRDFVLVKLCQDLPCFSREKLMQGFNEDMVIEAQQKFKINKQHARRVYEILRLLVTDMSDAEQYRSYRLDIKRRLISPYKKKQRDLAKMRKCLRPEELTNQMNQIEISMQHEQLEESFQELVEDYRRVIERLAQE | 10 | 1
SLC25A3 (protein) AVEEQYSCDYGSGRFFILCGLGGIISCGTTHTALVPLDLVKCRMQVDPQKYKGIFNGFSVTLKEDGVRGLAKGWAPTFLGYSMQGLCKFGFYEVFKVLYSNMLGEENTYLWRTSLYLAASASAEFFADIALAPMEAAKVRIQTQPGYANTLRDAAPKMYKEEGLKAFYKGVAPLWMRQIPYTMMKFACFERTVEALYKFVVPKPRSECSKPEQLVVTFVAGYIAGVFCAIVSHPADSVVSVLNKEKGSSASLVLKRLGFKGVWKGLFARIIMIGTLTALQWFIYDSVKVYFRLPRPPPPEMPESLKKKLGLTQ | 2 | 3
PHGDH (protein) AFANLRKVLISDSLDPCCRKILQDGGLQVVEKQNLSKEELIAELQDCEGLIVRSATKVTADVINAAEKLQVVGRAGTGVDNVDLEAATRKGILVMNTPNGNSLSAAELTCGMIMCLARQIPQATASMKDGKWERKKFMGTELNGKTLGILGLGRIGREVATRMQSFGMKTIGYDPIISPEVSASFGVQQLPLEEIWPLCDFITVHTPLLPSTTGLLNDNTFAQCKKGVRVVNCARGGIVDEGALLRALQSGQCAGAALDVFTEEPPRDRALVDHENVISCPHLGASTKEAQSRCGEEIAVQFVDMVKGKSLTGVVNAQALTSAFSPHTKPWIGLAEALGTLMRAWAGSPKGTIQVITQGTSLKNAGNCLSPAVIVGLLKEASKQADVNLVNAKLLVKEAGLNVTTSHSPAAPGEQGFGECLLAVALAGAPYQAVGLVQGTTPVLQGLNGAVFRPEVPLRRDLPLLLFRTQTSDPAMLPTMIGLLAEAGVRLLSYQTSLVSDGETWHVMGISSLLPSLEAWKQHVTEAFQFHF | 1 | –
RTN4 (protein) MEDLDQSPLVSSSDSPPRPQPAFKYQFVREPEDEEEEEEEEEEDEDEDLEELEVLERKPAAGLSAAPVPTAPAAGAPLMDFGNDFVPPAPRGPLPAAPPVAPERQPSWDPSPVSSTVPAPSPLSAAAVSPSKLPEDDEPPARPPPPPPASVSPQAEPVWTPPAPAPAAPPSTPAAPKRRGSSGSVDETLFALPAASEPVIRSSAENMDLKEQPGNTISAGQEDFPSVLLETAASLPSLSPLSAASFKEHEYLGNLSTVLPTEGTLQENVSEASKEVSEKAKTLLIDRDLTEFSELEYSEMGSSFSVSPKAESAVIVANPREEIIVKNKDEEEKLVSNNILHNQQELPTALTKLVKEDEVVSSEKAKDSFNEKRVAVEAPMREEYADFKPFERVWEVKDSKEDSDMLAAGGKIESNLESKVDKKCFADSLEQTNHEKDSESSNDDTSFPSTPEGIKDRSGAYITCAPFNPAATESIATNIFPLLGDPTSENKTDEKKIEEKKAQIVTEKNTSTKTSNPFLVAAQDSETDYVTTDNLTKVTEEVVANMPEGLTPDLVQEACESELNEVTGTKIAYETKMDLVQTSEVMQESLYPAAQLCPSFEESEATPSPVLPDIVMEAPLNSAVPSAGASVIQPSSSPLEASSVNYESIKHEPENPPPYEEAMSVSLKKVSGIKEEIKEPENINAALQETEAPYISIACDLIKETKLSAEPAPDFSDYSEMAKVEQPVPDHSELVEDSSPDSEPVDLFSDDSIPDVPQKQDETVMLVKESLTETSFESMIEYENKEKLSALPPEGGKPYLESFKLSLDNTKDTLLPDEVSTLSKKEKIPLQMEELSTAVYSNDDLFISKEAQIRETETFSDSSPIEIIDEFPTLISSKTDSFSKLAREYTDLEVSHKSEIANAPDGAGSLPCTELPHDLSLKNIQPKVEEKISFSDDFSKNGSATSKVLLLPPDVSALATQAEIESIVKPKVLVKEAEKKLPSDTEKEDRSPSAIFSAELSKTSVVDLLYWRDIKKTGVVFGASLFLLLSLTVFSIVSVTAYIALALLSVTISFRIYKGVIQAIQKSDEGHPFRAYLESEVAISEELVQKYSNSALGHVNCTIKELRRLFLVDDLVDSLKFAVLMWVFTYVGALFNGLTLLILALISLFSVPVIYERHQAQIDHYLGLANKNVKDAMAKIQAKIPGLKRKAE | 5 | 5
S100A9 (protein) MTCKMSQLERNIETIINTFHQYSVKLGHPDTLNQGEFKELVRKDLQNFLKKENKNEKVIEHIMEDLDTNADKQLSFEEFIMLMARLTWASHEKMHEGDEGPGHHHKPGLGEGTP | 2 | –
PLOD1 (protein) KGDAKPEDNLLVLTVATKETEGFRRFKRSAQFFNYKIQALGLGEDWNVEKGTSAGGGQKVRLLKKALEKHADKEDLVILFADSYDVLFASGPRELLKKFRQARSQVVFSAEELIYPDRRLETKYPVVSDGKRFLGSGGFIGYAPNLSKLVAEWEGQDSDSDQLFYTKIFLDPEKREQINITLDHRCRIFQNLDGALDEVVLKFEMGHVRARNLAYDTLPVLIHGNGPTKLQLNYLGNYIPRFWTFETGCTVCDEGLRSLKGIGDEALPTVLVGVFIEQPTPFVSLFFQRLLRLHYPQKHMRLFIHNHEQHHKAQVEEFLAQHGSEYQSVKLVGPEVRMANADARNMGADLCRQDRSCTYYFSVDADVALTEPNSLRLLIQQNKNVIAPLMTRHGRLWSNFWGALSADGYYARSEDYVDIVQGRRVGVWNVPYISNIYLIKGSALRGELQSSDLFHHSKLDPDMAFCANIRQQDVFMFLTNRHTLGHLLSLDSYRTTHLHNDLWEVFSNPEDWKEKYIHQNYTKALAGKLVETPCPDVYWFPIFTEVACDELVEEMEHFGQWSLGNNKDNRIQGGYENVPTIDIHMNQIGFEREWHKFLLEYIAPMTEKLYPGYYTRAQFDLAFVVRYKPDEQPSLMPHHDASTFTINIALNRVGVDYEGGGCRFLRYNCSIRAPRKGWTLMHPGRLTHYHEGLPTTRGTRYIAVSFVDP | 2 | –
SLC3A2 (protein) SQDTEVDMKEVELNELEPEKQPMNAASGAAMSLAGAEKNGLVKIKVAEDEAEAAAAAKFTGLSKEELLKVAGSPGWVRTRWALLLLFWLGWLGMLAGAVVIIVRAPRCRELPAQKWWHTGALYRIGDLQAFQGHGAGNLAGLKGRLDYLSSLKVKGLVLGPIHKNQKDDVAQTDLLQIDPNFGSKEDFDSLLQSAKKKSIRVILDLTPNYRGENSWFSTQVDTVATKVKDALEFWLQAGVDGFQVRDIENLKDASSFLAEWQNITKGFSEDRLLIAGTNSSDLQQILSLLESNKDLLLTSSYLSDSGSTGEHTKSLVTQYLNATGNRWCSWSLSQARLLTSFLPAQLLRLYQLMLFTLPGTPVFSYGDEIGLDAAALPGQPMEAPVMLWDESSFPDIPGAVSANMTVKGQSEDPGSLLSLFRRLSDQRSKERSLLHGDFHAFSAGPGLFSYIRHWDQNERFLVVLNFGDVGLSAGLQASDLPASASLPAKADLLLSTQPGREEGSPLELERLKLEPHEGLLLRFPYAA | 4 | 2
AP2A1 (protein) MPAVSKGDGMRGLAVFISDIRNCKSKEAEIKRINKELANIRSKFKGDKALDGYSKKKYVCKLLFIFLLGHDIDFGHMEAVNLLSSNKYTEKQIGYLFISVLVNSNSELIRLINNAIKNDLASRNPTFMCLALHCIANVGSREMGEAFAADIPRILVAGDSMDSVKQSAALCLLRLYKASPDLVPMGEWTARVVHLLNDQHMGVVTAAVSLITCLCKKNPDDFKTCVSLAVSRLSRIVSSASTDLQDYTYYFVPAPWLSVKLLRLLQCYPPPEDAAVKGRLVECLETVLNKAQEPPKSKKVQHSNAKNAILFETISLIIHYDSEPNLLVRACNQLGQFLQHRETNLRYLALESMCTLASSEFSHEAVKTHIDTVINALKTERDVSVRQRAADLLYAMCDRSNAKQIVSEMLRYLETADYAIREEIVLKVAILAEKYAVDYSWYVDTILNLIRIAGDYVSEEVWYRVLQIVTNRDDVQGYAAKTVFEALQAPACHENMVKVGGYILGEFGNLIAGDPRSSPPVQFSLLHSKFHLCSVATRALLLSTYIKFINLFPETKATIQGVLRAGSQLRNADVELQQRAVEYLTLSSVASTDVLATVLEEMPPFPERESSILAKLKRKKGPGAGSALDDGRRDPSSNDINGGMEPTPSTVSTPSPSADLLGLRAAPPPAAPPASAGAGNLLVDVFDGPAAQPSLGPTPEEAFLSELEPPAPESPMALLADPAPAADPGPEDIGPPIPEADELLNKFVCKNNGVLFENQLLQIGVKSEFRQNLGRMYLFYGNKTSVQFQNFSPTVVHPGDLQTQLAVQTKRVAAQVDGGAQVQQVLNIECLRDFLTPPLLSVRFRYGGAPQALTLKLPVTINKFFQPTEMAAQDFFQRWKQLSLPQQEAQKIFKANHPMDAEVTKAKLLGFGSALLDNVDPNPENFVGAGIIQTKALQVGCLLRLEPNAQAQMYRLTLRTSKEPVSRHLCELLAQQF | 5 | –
